The text below walks through data of PMC7573786 (Chemical communications (Cambridge, England), 2020).

Broadly, the Kd is a measure of binding affinity in units of concentration. Higher therefore signals lower affinity.

The target of experiment [1] is CBX1 chromodomain Y26AzF/F50AzF (UniProt P83916 20-73, Y26AzF, 4-azido-L-phenylalanine (AzF) at 26 and at 50). Put plainly: fluorescence polarisation. A general note: Fluorescence polarisation rises when a labelled molecule tumbles more slowly, as on binding a larger partner.
For experiment [2], the target named is CBX1 chromodomain Y26AzF/D54AzF (UniProt P83916 20-73, Y26AzF, 4-azido-L-phenylalanine (AzF) at 26 and at 54). As to the kind of experiment: fluorescence polarisation.
The target of experiment [3] is T1, wild type chromodomain of CBX1 (Chromobox protein 1) (UniProt P83916 20-73). As to the kind of experiment: fluorescence polarisation.
For experiment [4], the target named is T1, wild type chromodomain of CBX1 …. Put plainly: ITC. Background: ITC needs no label: the signal is the heat of the interaction.

With ARTKQTARKSTGGKA (trimethyllysine at K9; tetramethyl rhodamine (TAMRA) at the N-terminus) [TAMRA-H3K9me3 tracer peptide 2], the values for the dissociation constant Kd in experiment [1], in experiment [2] and in experiment [3] were 48.9 ± 8.7 µM, 50.8 ± 5.7 µM and 1.7 ± 0.2 µM, respectively.
As to ARTKQTARKSTGGKA (trimethyllysine at K9) [H3K9me3 peptide 3 (non-TAMRA)], binding in experiment [4] was characterised by a dissociation constant (Kd) of 5.3 ± 0.4 µM.
